We go through four molecules from patent publication US20230063116A1 (Regeneron, published 2023).

Where two headings read alike, the source gives them in different places. Bounds are passed on as bounds.

Experiment [1] has as its target T1, human VEGF165 (REGN110) (human, UniProt P15692 207-395).
T1 construct: It is treated here as the same molecule; also called hVEGF165; hVEGF165(M1-R191)
The experiment in a line: SPR, Biacore 3000, 25 C; trap captured on anti-VEGFR1 mAb surface, hVEGF165 injected; 1:1 fit.

Experiment [2] addresses T1, human VEGF165 (REGN110). The experiment in a line: cell-based or functional assay.
Target sequence in this assay (P15692 other isoform, or with tags, fused parts or gaps): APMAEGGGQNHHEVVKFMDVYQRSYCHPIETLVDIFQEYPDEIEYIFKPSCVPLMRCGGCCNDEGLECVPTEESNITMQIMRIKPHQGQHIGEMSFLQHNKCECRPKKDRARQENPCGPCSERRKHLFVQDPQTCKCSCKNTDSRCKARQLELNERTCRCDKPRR
The target in experiment [3] is T2, VEGF110 (hVEGF110, aa 207-318) (human, UniProt P15692 207-318).
T2 sequence (looked up): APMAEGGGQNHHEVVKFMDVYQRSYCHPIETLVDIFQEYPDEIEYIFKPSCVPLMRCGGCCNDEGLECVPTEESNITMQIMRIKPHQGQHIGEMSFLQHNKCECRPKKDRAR
The experiment in a line: cell-based or functional assay.

In experiment [4] the target is T1, human VEGF165 (REGN110). The experiment in a line: SPR, Biacore, 25 C; trap captured on anti-VEGFR1 mAb surface, hVEGF165 injected; 1:1 fit. As for the experimental part: (§1) Experimental Procedure. Equilibrium dissociation constants (KD values) for human VEGF₁₆₅ binding to various purified VEGF mini-trap constructs were determined using a real-time surface plasmon resonance biosensor using a Biacore 3000 instrument. All binding studies were performed in 10 mM HEPES, 150 mM NaCl, 3 mM EDTA, and 0.05% v/v Surfactant Tween-20, pH 7.4 (HBS-ET) running buffer at 25° C. The Biacore sensor surface was first derivatized by amine coupling with a monoclonal mouse anti-VEGFR1 antibody to capture VEGF mini-trap constructs. Binding studies were performed on the human VEGF reagent, human VEGF₁₆₅ (human VEGF₁₆₅; SEQ ID NO: 31). Different concentrations of VEGF₁₆₅ reagent, prepared in HBS-ET running buffer (2 nM — 62.5 pM; 2-fold serial dilution for human VEGF₁₆₅), were injected over an anti-VEGFR1-captured VEGF mini-trap construct surface for 1.8 minutes at a flow rate of 90 μL/minute, while the dissociation of VEGF mini-trap constructs bound VEGF₁₆₅ reagent was monitored for 60 minutes in HBS-ET running buffer. Kinetic association (kₐ) and dissociation (kd) rate constants were determined by fitting the real-time sensorgrams to a 1:1 binding model using Scrubber 2.0c curve fitting software. Binding dissociation equilibrium constants (KD) and dissociative half-lives (t½) were calculated from the kinetic rate constants as: […]
Background: SPR reads the build-up and loss of mass on a sensor chip optically.

The target in experiment [5] is T1, human VEGF165 (REGN110). The experiment in a line: SPR, Biacore, 25 C; trap captured on anti-VEGFR1 mAb surface, hVEGF165 injected. On the procedure: as §1
Experiment [6] addresses T3, VEGF121 (hVEGF121, aa 207-327) (human, UniProt P15692 207-327).
T3 chain: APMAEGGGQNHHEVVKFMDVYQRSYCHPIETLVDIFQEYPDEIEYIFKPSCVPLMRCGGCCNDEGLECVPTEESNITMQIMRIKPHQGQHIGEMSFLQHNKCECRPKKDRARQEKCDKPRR
The experiment in a line: cell-based or functional assay.

Experiment [7] addresses T2, VEGF110 (hVEGF110, aa 207-318). Kind of experiment: cell-based or functional assay. This is another data set of the same source.

B1: REGN7483^F (homodimer mini-trap, FabRICATOR cleaved from aflibercept) (receptor)
chain: SDTGRPFVEMYSEIPEIIHMTEGRELVIPCRVTSPNITVTLKKFPLDTLIPDGKRIIWDSRKGFIISNATYKEIGLLTCEATVNGHLYKTNYLTHRQTNTIIDVVLSPSHGIELSVGEKLVLNCTARTELNVGIDFNWEYPSSKHQHKKLVNRDLKTQSGSEMKKFLSTLTIDGVTRSDQGLYTCAASSGLMTKKNSTFVRVHEKDKTHTCPPCPAPELLG
modifications: N-linked glycans at N36, N68, N123, N196 (Table C)
notes: Disulfide-linked homodimer made by IdeS cleavage of aflibercept; also called dimer mini-trap from FabRICATOR (IdeS) cleavage of REGN3
In the case of B1, in the experiment with human VEGF165 (REGN110) [1], the Kd (usually a measure of binding affinity in units of concentration) was at most 1.32 pM; the koff (commonly the rate constant with which the complex falls apart) was at most 1e-05 s⁻¹; the kon (in general, the rate constant with which the complex forms) was found to be 7.58e+06 M⁻¹ s⁻¹; the “t½ (dissociative half-life)” value is at least 19.2 h. Besides, the “IC50 (M), inhibition of VEGFR1 signaling (luciferase), 20 pM VEGF165” value with human VEGF165 (REGN110) [2] amounted to 1.23e-11 M. For the same molecule, the “IC50 (M), inhibition of VEGFR1 signaling (luciferase), 20 pM VEGF110” value (shortened to “IC50 (M), inhibition … 20 pM VEGF110”) in experiment [3] was determined as 1.04e-11 M. Also, in the experiment with human VEGF165 (REGN110) [4], the affinity, expressed as Kd, was 1.32 pM; the koff was at least 1e-05 s⁻¹; the kon was 7.59e+06 M⁻¹ s⁻¹; the “t1/2 (dissociative half-life)” value is at least 19.2 h.

B2: REGN7483^R (homodimer mini-trap, recombinant) (receptor)
chain: B1 chain
modifications: N-linked glycans at N36, N68, N123, N196 (Table C)
notes: also called Recombinant dimer mini-trap
For B2, in the experiment with human VEGF165 (REGN110) [1], the dissociation constant (Kd) is at most 1.58 pM, the koff was at most 1e-05 s⁻¹, the on-rate constant (kon) was 6.3e+06 M⁻¹ s⁻¹ and the “t½ (dissociative half-life)” value is at least 19.2 h. For the same molecule, the “IC50 (M), inhibition of VEGFR1 signaling (luciferase), 20 pM VEGF165” value in the experiment with human VEGF165 (REGN110) [2] turned out to be 1.92e-11 M. Moreover, the “IC50 (M), inhibition … 20 pM VEGF110” value in experiment [3] was found to be 1.3e-11 M. Besides, in the experiment with human VEGF165 (REGN110) [4], the Kd was determined as 1.59 pM, the koff is at least 1e-05 s⁻¹, the kon was 6.3e+06 M⁻¹ s⁻¹ and the “t1/2 (dissociative half-life)” value is at least 19.2 h.

B3: REGN7992 (hVEGF minitrap-G4Sx12-hVEGF minitrap) (receptor)
chain: SDTGRPFVEMYSEIPEIIHMTEGRELVIPCRVTSPNITVTLKKFPLDTLIPDGKRIIWDSRKGFIISNATYKEIGLLTCEATVNGHLYKTNYLTHRQTNTIIDVVLSPSHGIELSVGEKLVLNCTARTELNVGIDFNWEYPSSKHQHKKLVNRDLKTQSGSEMKKFLSTLTIDGVTRSDQGLYTCAASSGLMTKKNSTFVRVHEKGGGGSGGGGSGGGGSGGGGSGGGGSGGGGSGGGGSGGGGSGGGGSGGGGSGGGGSGGGGSSDTGRPFVEMYSEIPEIIHMTEGRELVIPCRVTSPNITVTLKKFPLDTLIPDGKRIIWDSRKGFIISNATYKEIGLLTCEATVNGHLYKTNYLTHRQTNTIIDVVLSPSHGIELSVGEKLVLNCTARTELNVGIDFNWEYPSSKHQHKKLVNRDLKTQSGSEMKKFLSTLTIDGVTRSDQGLYTCAASSGLMTKKNSTFVRVHEK
notes: Monomeric single chain, no tag; also called REGN7992 (G4Sx12 linker); single chain mini-trap with (G4S)12, no tag
As to B3, the “2nM hVEGF165 Bound” value with human VEGF165 (REGN110) [5] stood at 22 RU. The “IC50 (M), inhibition of VEGFR1 signaling (luciferase), 20 pM VEGF121” value in experiment [6] was 2.37e-11 M. In addition, in experiment [7], the “IC50 (M), inhibition … 20 pM VEGF110” value was found to be 3.42e-11 M. In the experiment with human VEGF165 (REGN110) [4], the dissociation constant (Kd) was determined as 15.3 pM, the koff worked out at 9.7e-05 s⁻¹, the kon was 6.3e+06 M⁻¹ s⁻¹ and the “t1/2 (dissociative half-life)” value worked out at 1.98 h.

B4: REGN7991 (hVEGF minitrap-G4Sx9-hVEGF minitrap) (receptor)
chain: SDTGRPFVEMYSEIPEIIHMTEGRELVIPCRVTSPNITVTLKKFPLDTLIPDGKRIIWDSRKGFIISNATYKEIGLLTCEATVNGHLYKTNYLTHRQTNTIIDVVLSPSHGIELSVGEKLVLNCTARTELNVGIDFNWEYPSSKHQHKKLVNRDLKTQSGSEMKKFLSTLTIDGVTRSDQGLYTCAASSGLMTKKNSTFVRVHEKGGGGSGGGGSGGGGSGGGGSGGGGSGGGGSGGGGSGGGGSGGGGSSDTGRPFVEMYSEIPEIIHMTEGRELVIPCRVTSPNITVTLKKFPLDTLIPDGKRIIWDSRKGFIISNATYKEIGLLTCEATVNGHLYKTNYLTHRQTNTIIDVVLSPSHGIELSVGEKLVLNCTARTELNVGIDFNWEYPSSKHQHKKLVNRDLKTQSGSEMKKFLSTLTIDGVTRSDQGLYTCAASSGLMTKKNSTFVRVHEK
notes: Monomeric single chain, no tag; also called REGN7991 (G4Sx9 linker); single chain mini-trap with (G4S)9, no tag
With B4, the “2nM hVEGF165 Bound” value in the experiment with human VEGF165 (REGN110) [5] amounted to 40 RU. Also, the “IC50 (M), inhibition of VEGFR1 signaling (luciferase), 20 pM VEGF121” value in experiment [6] is 7.71e-11 M. Also, the “IC50 (M), inhibition … 20 pM VEGF110” value in experiment [7] is 7.88e-11 M. Besides, in the experiment with human VEGF165 (REGN110) [4], binding was put at a Kd of 13.8 pM, the off-rate constant (koff) turned out to be 9.79e-05 s⁻¹, the on-rate constant (kon) stood at 7.1e+06 M⁻¹ s⁻¹ and the “t1/2 (dissociative half-life)” value was 1.97 h.
